{"source": "IntAct's records for PubMed 16763556", "key": {"polh_human POLH": {"target": "T1, polh_human POLH (UniProt Q9Y253)", "T1 sequence": "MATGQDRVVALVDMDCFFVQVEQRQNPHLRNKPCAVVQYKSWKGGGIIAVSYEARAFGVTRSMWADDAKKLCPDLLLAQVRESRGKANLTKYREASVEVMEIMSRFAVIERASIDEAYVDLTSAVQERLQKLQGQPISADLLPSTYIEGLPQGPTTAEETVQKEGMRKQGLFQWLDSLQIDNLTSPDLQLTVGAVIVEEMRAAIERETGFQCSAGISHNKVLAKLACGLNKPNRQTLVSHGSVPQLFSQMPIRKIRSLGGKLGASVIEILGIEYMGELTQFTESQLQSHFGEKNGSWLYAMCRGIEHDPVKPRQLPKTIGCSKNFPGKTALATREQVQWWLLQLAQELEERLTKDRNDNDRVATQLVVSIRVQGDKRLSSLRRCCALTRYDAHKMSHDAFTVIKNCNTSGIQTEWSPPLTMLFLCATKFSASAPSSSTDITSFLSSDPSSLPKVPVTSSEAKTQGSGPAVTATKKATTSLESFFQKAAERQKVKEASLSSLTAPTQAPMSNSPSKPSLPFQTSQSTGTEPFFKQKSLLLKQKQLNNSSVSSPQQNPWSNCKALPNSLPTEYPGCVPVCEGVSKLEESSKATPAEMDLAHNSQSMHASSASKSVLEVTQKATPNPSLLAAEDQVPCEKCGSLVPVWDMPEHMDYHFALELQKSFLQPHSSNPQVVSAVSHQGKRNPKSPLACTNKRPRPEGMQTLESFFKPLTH"}, "poli_human POLI": {"target": "T2, poli_human POLI (UniProt Q9UNA4)", "T2 sequence": "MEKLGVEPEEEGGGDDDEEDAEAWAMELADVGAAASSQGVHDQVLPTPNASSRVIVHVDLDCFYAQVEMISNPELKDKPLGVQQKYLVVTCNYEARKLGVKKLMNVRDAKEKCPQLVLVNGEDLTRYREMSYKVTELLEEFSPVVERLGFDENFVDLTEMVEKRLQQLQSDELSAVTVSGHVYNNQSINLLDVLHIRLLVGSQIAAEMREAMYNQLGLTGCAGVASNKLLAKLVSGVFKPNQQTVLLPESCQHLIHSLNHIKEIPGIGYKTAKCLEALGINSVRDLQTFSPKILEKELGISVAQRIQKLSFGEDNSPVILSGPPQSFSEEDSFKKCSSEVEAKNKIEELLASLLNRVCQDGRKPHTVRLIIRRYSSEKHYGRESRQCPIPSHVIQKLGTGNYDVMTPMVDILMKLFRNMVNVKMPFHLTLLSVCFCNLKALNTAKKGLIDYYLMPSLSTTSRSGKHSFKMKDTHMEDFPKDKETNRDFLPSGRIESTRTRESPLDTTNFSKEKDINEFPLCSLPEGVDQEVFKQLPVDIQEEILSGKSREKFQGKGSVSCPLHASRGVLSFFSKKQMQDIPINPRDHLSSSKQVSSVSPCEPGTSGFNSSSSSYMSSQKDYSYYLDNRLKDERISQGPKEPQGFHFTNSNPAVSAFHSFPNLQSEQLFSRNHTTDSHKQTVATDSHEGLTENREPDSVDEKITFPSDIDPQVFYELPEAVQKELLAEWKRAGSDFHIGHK"}}, "data": [{"substance": "Polyubiquitin-C (Homo sapiens) (from UniProt P0CG48) G75S", "values": [{"measurement": "effect of a mutation on the interaction", "setting": "polh_human POLH", "result": "disrupting interaction"}, {"measurement": "effect of a mutation on the interaction", "setting": "poli_human POLI", "result": "disrupting interaction"}]}, {"substance": "Polyubiquitin-C (Homo sapiens) (from UniProt P0CG48) G76S", "values": [{"measurement": "effect of a mutation on the interaction", "setting": "polh_human POLH", "result": "disrupting interaction"}, {"measurement": "effect of a mutation on the interaction", "setting": "poli_human POLI", "result": "disrupting interaction"}]}]}
